# According to US20090274696A1, “METHODS FOR TREATING INFLAMMATION” (WYETH, priority 2008, published 2009):
# Columns and labels:
# [1] = system: TSM of fresh tracheal rings; test: Force response of fresh tracheas from intranasally challenged mice; type: in vivo, mouse; conditions: intranasal once a day×5 days, 100 nM rFIZZ1 or 0.1 ng/ml LPS; 24 hours after last treatment; PBS 100.00±14.63; N=5
# Procedure: For some experiments, ex vivo TSM tensions of fresh tracheal rings and BAL cell counts were measured at 24 hours after the last treatment of mice receiving an intranasal dose of either PBS, 0.1 ng/m: LPS or 100 nM rFIZZ1 (once a day×5 days).
# (§1) Trachea were supported longitudinally by a plexiglas rod with a stainless steel pin into the base of a double-jacketed, glass organ bath filled with 10 mL of Krebs-Henseleit (K-H) solution (37° C.) of the following composition: 118 mM NaCl; 4.7 mM KCl; 1.2 mM KH2PO4; 11.1 mM Dextrose; 1.2 mM MgSO4; 2.8 mM CaCl2; and 25 mM NaHCO3. The solution was maintained at a pH of 7.40-7.45 and continuously gassed with a mixture of 5% CO2 and […] for the duration of each experiment. […] Initial tensions of TSM were set at approximately 0.5 g and maintained for 1 hour. Agonists were given after a steady state of tension had been reached.
# (§2) At the end of each force measurement experiment, tracheas were blotted on a gauze pad and weighted. Results were calculated as milligram of tension per milligram of TSM weight (mg/mg) and expressed as an individual percentage (%) of 10 μM CCh- or 200 μM papaverine-induced tension response in PBS-treated trachea. For the control group, CCh (papaverine)-mediated responses were normalized to the mean value of the maximal responses.
# [2] = system: tracheal smooth muscle (TSM) of mouse tracheal rings; test: ISO-induced relaxation of CCh-contracted tracheal rings; type: cell-based; conditions: normalized to 200 μM papaverine, PBS 46.29±2.85, n=6
# Procedure: Experimental animals were sacrificed by CO2 asphyxiation. Tracheas were surgically excised and cleaned of adherent connective tissue. Each trachea was sectioned into rings 3-4 mm in length and cultured in DMEM containing 1.0 M HEPES, 1.0 M NaOH, 5% of heat-inactivated FBS (Hy-Clone, Logan, Utah), 0.2M glutamine, 1.0 M CaCl2, 2.5 μg/ml fungizone, 5 μg/mL insulin, 100 U/mL penicillin and 100 μg/mL streptomycin) (DMEM-5%) for 24 hours. For in vitro experiments, the tracheal rings were cultured in DMEM in the absence and presence of either 10 or 100 nM recombinant FIZZ1 (Leinco Technologies, USA) for 24 hours.
# as §1
# [CCh]-response curves at the doses ranging from 3×10^−8 to 10^−5 M were completed in tracheal rings in absence and presence of either FIZZ1 or LPS (0.1 ng/mL). Concentrations of agonist were increased only when force responses to the previous concentration had stabilized. To examine TSM relaxant responses to isoprenaline (ISO), tracheal rings were first contracted by an addition of 1.0 μM CCh (Sigma, USA). Once the contraction had stabilized, ISO (Sigma, USA) was introduced into each bath at increasing concentrations (3×10^−8-10^−5 M). […]
# as §2, with “For the control group, CCh (papaverine)-mediated responses were normalized to the mean value of the maximal responses.” left out
# [3] = system: TSM of epithelium-denuded trachea; test: CCh-evoked force in trachea with mechanically removed epithelium EP(−); type: cell-based, mouse
# Procedure: Histological examination of the structure of the airway and the status of the airway epithelial layer was performed in whole/sectional fresh trachea and as well as trachea cultured overnight with and without 100 nM FIZZ1. To understand the role of airway epithelium in regulating contractility of TSM, we measured the contractile response of tracheal rings after the epithelium was mechanically removed. Briefly, airway epithelial cells were removed by gently rubbing the intraluminal surface with polyethylene tubing (Becton Dickinson & Company, MD USA) connected to a Precision Glide needle (30G1/2) followed by perfusion with 1.0 ml air bubbles and then 1.0 ml K-H solution (re). All of the experimental tracheas were stained with H & E solution (CAT hematoxylin, Edgar Degas Eosin Working Solution, Biocare Medical, Concord, Calif.) and photographed under a light microscope at ×4.0 and ×20 magnification. […]
# as §2, with “For the control group, CCh (papaverine)-mediated responses were normalized to the mean value of the maximal responses.” left out
# [4] = system: mouse tracheal epithelium cells (MTEC); test: MTEC apoptosis, Cell Death Detection ELISAplus; type: cell-based
# Procedure: MTEC culture was performed by following the protocol of You et al. (“Growth and differentiation of mouse tracheal epithelial cells: selection of a proliferative population,” Am J Physiol Lung Cell Mol Physiol, 2002, 283:L 1315-1321) with minor modification. Briefly, tracheas were incubated in 1.5 mg/mL pronase (Roche Molecular Biochemicals) for 18 h at 4° C. Cells were treated with 0.5 mg/mL crude pancreatic DNase I (Sigma-Aldrich) on ice for 5 min. After incubation in tissue culture plates for 3-4 h in 5% CO2 at 37° C., nonadherent cells were incubated in a plate coated with type I rat tail collagen (BD Biosciences) in modified BEBM (Lonza, Md. USA) containing 10 μg/ml insulin, 5 μg/ml transferrin, 25 ng/ml epidermal growth factor, 5 μg/ml epinephrine and 30 μg/ml bovine pituitary extract, 0.5 nM Hydrocortisone, 25 ng/ml hEGF, 15 nM Triiodothyronine, 0.25 μg/ml Gentamicin/amphotericin-B and 0.01 μM retinoic acid in 5% CO2 at 37° C. […]
# Apoptotic MTEC death was examined using Cell Death Detection ELISAplus (Roche) according to the manufacturer's instructions and calculated as an index of a fold change over a control. […] Quantitation of histone-associated-DNA-fragments in supernatants of MTEC cultures (5×10^4/mL) treated with PBS, 0.1 ng/mL LPS or 100 nM rFIZZ1 was performed at an absorbance of 405-490 nm.
molecule,measurement,setting,value
"rFIZZ1: recombinant FIZZ1 (Leinco Technologies), mouse FIZZ1 protein, resistin-like molecule-α (protein, listed as Mus musculus, (1)..(101) Murine FIZZ1 polypeptide) MKTTTCSLLICISLLQLMVPVNTDETIEIIVENKVKELLANIPANYPSTVTKTLSCTSVKTMNRWASCPAGMTATGCACGFACGSWEIQSGDTCNCLCLLV","Maximal tensions (%) of TSM, CCh-evoked, fresh trachea",[1],147.78±18.57%
same,"maximal relaxing force (%), ISO-induced",[2]; 10 nM rFIZZ1 pretreatment,46.52±2.80%
same,"maximal relaxing force (%), ISO-induced",[2]; 100 nM rFIZZ1 pretreatment,43.38±0.75%
same,"EP(−) TSM sensitivity to CCh, LogEC50","[3]; EP(−)/FIZZ1 100 nM, Mean ± SE, N=8",−0.91 ± 0.08 μM
same,"maximal tensions (%), CCh stimulation, EP(−) trachea","[3]; denuded epithelium EP(−) with 100 nM FIZZ1, EP(+) 100±6.22",141.43±6.65%
same,MTEC apoptosis (apoptosis index),"[4]; 100 nM rFIZZ1, all time points, compared to LPS treatment, N=3",significant increased
same,"start of increase in cell death, time of incubation",[4]; FIZZ1-treated MTEC,3 h
